Test results as given in patent US7985404B1, “Reducing hair growth, hair follicle and hair shaft size and hair pigmentation” (Johnson & Johnson Consumer Companies, Inc., priority 1999, dated 2011).

Key:
C57Bl/6 mice = experiment: Depilation-induced hair cycle in C57Bl/6 mice, daily topical treatment; type: in vivo, mouse; details: day eight of the hair cycle (FIG. 10), PBS-liposome vehicle
From the text: (§1) C57BI/6 or C3H mice (male and female) were obtained from Charles River (Kingston, NY), at 8-10 weeks of age and were in the resting (telogen) phase of their respective hair cycle. Hair growth was induced by wax depilation (plucking) of each respective animal's back fur according to the procedure set forth in Stenn, et al., “Glucocorticoid Effect on Hair Growth Initiation: A Reconsideration,” 6 Skin Pharmacol., 125-134 (1993). In C57Bl/6 and C3H mice, 8-10 weeks old, the growth phase (anagen) starts synchronously in all hair follicles at the time of depilation.
Since the murine hair cycle varies not only between strains, but also amongst individual animals, the status of the hair cycle was analyzed in each animal on study. A 2 cm by 1 cm skin sample was isolated from each mouse with scissors, fixed with a 10% buffered formalin solution having a pH of about 6.9-7.1 at 25° C. (Stephens Scientific), and then formed into a paraffin block according to well-known procedures. The block was then microtomed, and sections were stained with H&E or Fontana-Mason stain. Sections were examined histologically in order to verify the phase of the hair cycle, the size of the hair follicle and hair shaft and the level of hair pigmentation, using procedures well known in the art. Hair length was assessed visually, and by using a low magnification (×8) dissecting microscope. […]

trypsin = experiment: Enzchek protease digestion fluorescent assay with trypsin; type: biochemical; details: 100 units of trypsin; increasing concentrations / serial dilutions
Procedure: In order to support the hypothesis that STI and BBI in soymilk are involved in the hair growth effects described above, we tested soymilk for its serine protease inhibitory activity. An enzymatic assay was performed using “Enzchek”, a protease digestion fluorescent test system made by Molecular Probes of Eugene, Oreg. Using 100 units of trypsin (from Sigma chemicals, St. Louis Mo.) the test system produced fluorescence reading of about 1100 units. This reaction was inhibited with increasing concentrations of STI, as expected from a known trypsin inhibitor.

C3H mice = experiment: Depilation-induced hair cycle in C3H mice, daily topical treatment; type: in vivo, mouse; details: for hair follicle histology: 1%, day seven of the hair cycle; for hair follicle histology / effect on hair growth and pigmentation: PBS-liposome vehicle; for effect on hair growth and pigmentation: high concentrations; for hair growth, follicle and shaft size, visual observation throughout the hair cycle: in PBS-liposome vehicle (FIG. 9)
From the text: as §1
Since the murine hair cycle varies not only between strains, but also amongst individual animals, the status of the hair cycle was analyzed in each animal on study. A 2 cm by 1 cm skin sample was isolated from each mouse with scissors, fixed with a 10% buffered formalin solution having a pH of about 6.9-7.1 at 25° C. (Stephens Scientific), and then formed into a paraffin block according to well-known procedures. The block was then microtomed, and sections were stained with H&E or Fontana-Mason stain. Sections were examined histologically in order to verify the phase of the hair cycle, the size of the hair follicle and hair shaft and the level of hair pigmentation, using procedures well known in the art. Hair length was assessed visually, and by using a low magnification (×8) dissecting microscope.
In order to verify that the effect of soymilk on hair growth is not specific to C57Bl/6 mice, we repeated the experiment described in Example 4 using the brown haired (Agouti) C3H mice. The results of these experiments were similar both visually and histologically.

| Molecule | hair follicle histology (C57Bl/6 mice) | inhibition of trypsin reaction (trypsin) | hair follicle histology (C3H mice) | effect on hair growth and pigmentation (C3H mice) | hair growth, follicle and shaft size, visual observation throughout the hair cycle (C3H mice) |
| --- | --- | --- | --- | --- | --- |
| STI: soybean-derived serine protease inhibitor protein from Sigma-Aldrich, used in PBS-liposome vehicle (protein, UniProt P01070 25-205, looked up) Trypsin inhibitor A: DFVLDNEGNPLENGGTYYILSDITAFGGIRAAPTGNERCPLTVVQSRNELDKGIGTIISSPYRIRFIAEGHPLSLKFDSFAVIMLCVGIPTEWSVVEDLPEGPAVKIGENKDAMDGWFRLERVSDDEFNNYKLVFCPQQAEDDKCGDIGISIDHDDGTRRLVVSKNKPLVVQFQKLDKESL | smaller and less pigmented follicles | inhibited | reduce hair follicle and hair shaft size and hair shaft pigmentation | substantial | could delay hair growth and reduce hair follicle and hair shaft size |
| BBI: soybean-derived serine protease inhibitor protein from Sigma-Aldrich, used in PBS-liposome vehicle (protein, UniProt P01055 40-110, looked up) Bowman-Birk type proteinase …: DDESSKPCCDQCACTKSNPPQCRCSDMRLNSCHSACKSCICALSYPAQCFCVDITDFCYEPCKPSEDDKEN | smaller and less pigmented follicles |  | reduce hair follicle and hair shaft size and hair shaft pigmentation | substantial | could delay hair growth and reduce hair follicle and hair shaft size |
